# Reference: IntAct's records for PubMed 17024177
# Columns and labels:
# [1] = target: sp1_human SP1 (UniProt P08047)
# [2] = target: pdk1_human PDK1 (UniProt Q15118)
# Chain of pdk1_human PDK1 (Q15118 whole entry, looked up): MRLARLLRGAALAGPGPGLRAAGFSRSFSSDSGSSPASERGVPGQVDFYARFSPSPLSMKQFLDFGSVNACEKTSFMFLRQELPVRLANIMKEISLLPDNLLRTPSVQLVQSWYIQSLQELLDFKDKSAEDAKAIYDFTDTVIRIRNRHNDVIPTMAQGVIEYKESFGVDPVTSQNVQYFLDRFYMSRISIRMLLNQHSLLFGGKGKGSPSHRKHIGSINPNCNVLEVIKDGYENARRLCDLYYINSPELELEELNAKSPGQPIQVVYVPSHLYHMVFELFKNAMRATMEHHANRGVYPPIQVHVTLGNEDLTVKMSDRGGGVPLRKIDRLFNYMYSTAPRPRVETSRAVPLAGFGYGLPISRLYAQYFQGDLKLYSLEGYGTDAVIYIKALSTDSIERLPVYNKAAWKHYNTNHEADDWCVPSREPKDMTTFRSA
# Chain of sp1_human SP1 (P08047 whole entry): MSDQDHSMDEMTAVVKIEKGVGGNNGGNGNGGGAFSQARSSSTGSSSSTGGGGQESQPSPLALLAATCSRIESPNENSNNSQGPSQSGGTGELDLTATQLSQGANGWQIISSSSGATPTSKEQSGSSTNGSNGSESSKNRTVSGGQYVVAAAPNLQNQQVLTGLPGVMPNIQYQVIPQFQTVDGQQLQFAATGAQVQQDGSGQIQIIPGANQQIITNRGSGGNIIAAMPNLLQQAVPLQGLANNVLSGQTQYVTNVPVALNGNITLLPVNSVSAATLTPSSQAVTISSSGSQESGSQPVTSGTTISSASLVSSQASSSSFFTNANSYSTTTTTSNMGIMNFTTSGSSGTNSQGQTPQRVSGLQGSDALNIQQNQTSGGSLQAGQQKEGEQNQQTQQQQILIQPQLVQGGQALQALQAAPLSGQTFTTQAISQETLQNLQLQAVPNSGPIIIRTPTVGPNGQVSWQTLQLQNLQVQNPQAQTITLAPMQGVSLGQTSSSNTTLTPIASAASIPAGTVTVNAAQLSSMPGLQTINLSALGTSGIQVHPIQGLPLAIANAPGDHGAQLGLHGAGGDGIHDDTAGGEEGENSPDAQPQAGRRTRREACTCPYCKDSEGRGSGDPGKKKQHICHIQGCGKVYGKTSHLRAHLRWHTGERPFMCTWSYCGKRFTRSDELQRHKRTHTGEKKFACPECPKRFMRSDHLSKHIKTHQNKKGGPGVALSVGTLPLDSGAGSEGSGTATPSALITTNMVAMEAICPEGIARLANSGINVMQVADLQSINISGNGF
# Chain of Endothelial PAS domain-containing protein 1 (Homo sapiens), Q99814 P329T (Q99814 whole entry P329T, the tested form may be a part): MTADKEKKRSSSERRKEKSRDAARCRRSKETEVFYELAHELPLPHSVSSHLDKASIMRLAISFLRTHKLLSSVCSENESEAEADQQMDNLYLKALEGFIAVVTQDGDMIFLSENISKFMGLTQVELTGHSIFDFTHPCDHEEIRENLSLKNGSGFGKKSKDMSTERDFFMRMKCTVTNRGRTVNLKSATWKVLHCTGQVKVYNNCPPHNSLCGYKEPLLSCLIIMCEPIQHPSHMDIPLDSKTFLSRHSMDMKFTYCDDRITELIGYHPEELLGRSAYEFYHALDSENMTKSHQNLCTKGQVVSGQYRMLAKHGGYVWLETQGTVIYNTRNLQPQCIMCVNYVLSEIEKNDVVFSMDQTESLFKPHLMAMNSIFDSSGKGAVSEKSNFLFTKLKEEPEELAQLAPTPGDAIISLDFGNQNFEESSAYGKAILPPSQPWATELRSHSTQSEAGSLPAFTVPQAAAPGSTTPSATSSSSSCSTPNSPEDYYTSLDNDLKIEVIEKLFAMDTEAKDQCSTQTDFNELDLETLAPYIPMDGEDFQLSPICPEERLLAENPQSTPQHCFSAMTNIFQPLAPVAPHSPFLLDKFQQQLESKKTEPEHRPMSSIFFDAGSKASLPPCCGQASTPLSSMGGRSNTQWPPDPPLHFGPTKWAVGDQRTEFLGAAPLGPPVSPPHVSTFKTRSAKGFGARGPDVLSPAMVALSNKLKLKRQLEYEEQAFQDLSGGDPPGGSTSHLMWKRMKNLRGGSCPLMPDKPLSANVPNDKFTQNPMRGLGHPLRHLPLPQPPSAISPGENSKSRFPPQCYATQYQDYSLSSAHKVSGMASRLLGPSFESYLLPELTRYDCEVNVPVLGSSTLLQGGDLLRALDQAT
# Chain of Endothelial PAS domain-containing protein 1 (Homo sapiens), Q99814 T324V (Q99814 whole entry T324V, the tested form may be a part): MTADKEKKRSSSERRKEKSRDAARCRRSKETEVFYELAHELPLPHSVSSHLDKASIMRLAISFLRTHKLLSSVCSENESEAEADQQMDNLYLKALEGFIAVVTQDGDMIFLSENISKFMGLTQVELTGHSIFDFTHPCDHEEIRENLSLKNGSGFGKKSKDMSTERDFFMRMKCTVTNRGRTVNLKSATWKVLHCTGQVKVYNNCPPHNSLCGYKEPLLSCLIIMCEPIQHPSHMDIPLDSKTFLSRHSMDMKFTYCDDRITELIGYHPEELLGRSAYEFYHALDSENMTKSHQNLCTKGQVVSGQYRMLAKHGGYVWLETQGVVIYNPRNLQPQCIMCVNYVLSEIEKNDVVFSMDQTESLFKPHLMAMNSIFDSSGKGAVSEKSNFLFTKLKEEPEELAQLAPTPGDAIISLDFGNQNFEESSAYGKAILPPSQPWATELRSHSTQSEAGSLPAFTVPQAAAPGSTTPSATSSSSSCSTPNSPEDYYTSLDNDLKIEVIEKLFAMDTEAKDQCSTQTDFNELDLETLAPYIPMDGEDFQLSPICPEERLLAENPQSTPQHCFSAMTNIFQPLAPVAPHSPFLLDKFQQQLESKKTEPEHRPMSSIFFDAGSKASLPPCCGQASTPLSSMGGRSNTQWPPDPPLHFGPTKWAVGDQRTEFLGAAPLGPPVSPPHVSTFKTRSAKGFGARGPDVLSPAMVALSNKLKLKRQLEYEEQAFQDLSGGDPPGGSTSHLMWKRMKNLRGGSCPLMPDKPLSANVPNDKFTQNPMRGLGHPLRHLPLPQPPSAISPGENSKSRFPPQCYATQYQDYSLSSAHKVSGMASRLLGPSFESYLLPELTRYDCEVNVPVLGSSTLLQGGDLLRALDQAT
substance,measurement,setting,value
"Endothelial PAS domain-containing protein 1 (Homo sapiens), Q99814 P329T",effect of a mutation on the interaction,[1],increasing interaction
"Endothelial PAS domain-containing protein 1 (Homo sapiens), Q99814 T324V",effect of a mutation on the interaction,[2],disrupting interaction
